Data taken from patent publication US7700727B2, “Compositions and kits for detecting pathogen infection” (Biokit, S.A., priority 2003, dated 2010).

Experiments:
lysozyme [1] = biological target: T1, lysozyme (Homo sapiens, UniProt P61626); experiment: Lysozyme binding assay on spotted β-APP fragments with POD-labeled human lysozyme; details: 10 μg protein spotted; POD-huLYS diluted 1/1000
T1 sequence (P61626 19-148): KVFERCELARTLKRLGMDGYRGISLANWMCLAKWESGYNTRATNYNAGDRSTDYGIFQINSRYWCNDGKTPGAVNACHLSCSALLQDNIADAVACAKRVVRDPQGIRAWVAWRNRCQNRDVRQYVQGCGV
Procedure: To test whether the β-APP protein binds huLYS, we performed lysozyme binding assays using purified, recombinant forms of β-APP. Both sAPPα (product number: S9564) and sAPPα (302-612) (product number: S8065) were purchased from Sigma-Aldrich (Tres cantos, Madrid, Spain). 10 μg of each protein was spotted onto a Nytran membrane (Scleicher & Schuiell, Dassel, Germany). Non-specific adsorption sites were blocked by incubation for one hour in TBST-milk. After three washes with TBST, the membrane was incubated for one hour with horse radish peroxidase (POD)-labeled human lysozyme diluted 1/1000 in TBST-milk. Next, the membrane was washed three times, for 5 minutes each wash, with TBST. Staining was performed by adding 5 ml of POD chromogenic substrate (TMB, product number: T0565, Sigma). […] Moreover, the β-APP/huLYS protein complex likely serves as a diagnostic marker of Alzheimer's disease.

[2] = test system: Micrococcus lysodeikticus; details: pH 6.24, 25° C., Micrococcus lysodeikticus suspension; cited from earlier work
chicken lysozyme [3] = biological target: T2, chicken lysozyme (Gallus gallus, UniProt P00698); experiment: Far Western blot lysozyme-protein interaction assay; format: binding; design: Purified chicken egg white lysozyme; purchased Sigma-Aldrich (Madrid, Spain); host or cells: chicken egg white; details: 1, 5 and 10 μg immobilized lysozyme per lane; washes with 0.05% Tween 20
T2 sequence (P00698 19-147): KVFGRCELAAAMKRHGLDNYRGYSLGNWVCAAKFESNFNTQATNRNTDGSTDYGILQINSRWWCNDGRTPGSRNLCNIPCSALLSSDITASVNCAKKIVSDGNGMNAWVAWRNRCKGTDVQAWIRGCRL
Procedure: (§1) In order to test this hypothesis, a Far-Western blot lysozyme-protein interaction assay was performed. The assay is summarized in FIG. 5 and comprises generally the following three steps: (1) immobilization of purified lysozyme onto a membrane; (2) probing of the membrane with a ligand likely to bind directly to the lysozyme; and (3) immunodetection of the bound lysozyme-ligand. A detailed experimental procedure is presented below.
(§2) Purified chicken egg white lysozyme and human breast milk lysozyme were purchased from Sigma-Aldrich (Madrid, Spain). Two series of aliquot fractions containing 1 μg, 5 μg, and 10 μg of purified lysozyme and a protein molecular weight marker (SeeBlue Plus II™, Invitrogen SA, Barcelona, Spain) were separated electrophoretically through a 4-12% SDS-PAGE gel using the conditions recommended by the supplier (Invitrogen). […] The presence of lysozyme immobilized onto the PVDF membrane was assessed by staining for 1 minute with Ponceau S stain (Sigma-Aldrich, Madrid, Spain), and then destained by vigorous washing for 5 minutes with desionized water. The membrane was divided in two, each portion containing a protein ladder and three quantities of chicken or human lysozyme (1 μg, 5 μg and 10 μg per lane). […]

lysozyme [4] = biological target: T1, lysozyme; experiment: as above; format: binding; details: 1, 5 and 10 μg immobilized lysozyme per lane; washes with 0.05% Tween 20
Procedure: as §1, §2

lysozyme [5] = biological target: T1, lysozyme; experiment: Lysozyme inhibition assay (EnzCheck, fluorescein-labeled Micrococcus lysodeikticus); format: biochemical
Procedure: (§3) To test this hypothesis, the antibacterial activity of both human and chicken lysozyme, in the presence or absence of GST-Tp17, was assayed using an EnzCheck® lysozyme assay kit (Molecular Probes, Eugene, Oreg.). The assay comprises the use of Fluorescein-labeled Micrococcus lysodeikticus bacterial cells as a fluorescent substrate of lysozyme. In this Gram positive bacterium, the peptidoglycan layer is directly accessible to lysozyme, and has been Fluorescein-labeled such that fluorescence is naturally quenched. Upon lysozyme hydrolysis, quenching is relieved and fluorescein is released in a quantity that is proportional to lysozyme activity. The following experimental protocol was used.
(§4) A typical 100 μl reaction consisted of 25 μl of lysozyme solution (10 units for chicken lysozyme or 50 units for human lysozyme, dissolved in deionized water), 25 μl of the test protein solution and 50 μl of a suspension of fluorescein-labeled Micrococcus lysodeikticus (50 μg/ml). The reaction was incubated for 45 minutes at 37° C. and the fluorescence was measured (λexc.=485 nm; λemi.=520 nm) using a fluorescence multi-well plate reader model FLx800 (Bio TEK instruments, Winoosky, Vt.) equipped with KC junior data acquisition software (Bio TEK Instruments, Winoosky, Vt.). Each experimental point was expressed as the mean and standard deviation corresponding to the reading of three independent wells. Wells containing 50 μl of deoinized water and 50 μl of Fluorescein-labeled Micrococcus lysodeikticus suspension were used as a blank. Two fold serial dilutions of test protein were used to vary the concentration of the test protein from 83.5 to 1.3 μg/well.

chicken lysozyme [6] = biological target: T2, chicken lysozyme; experiment: as above; format: biochemical
Procedure: as §3, §4

[7] = test system: anti-T. pallidum antibodies in human sera; experiment: Syphilis ELISA (Bioelisa, second and third generation format) with added lysozyme
Description: Syphilis screening is routinely performed using enzyme-linked immunosorbent assays (ELISA) kits. These kits detect the binding of anti-syphilis antibodies to T. pallidum antigens immobilized in the wells of a microtiter plate. Detection of the binding of anti-syphilis antibodies to the plate is normally carried out by means of either an enzyme-labeled antiserum directed against human Fc antibody chains (second generation kit) or an enzyme-labeled T. pallidum antigen (third generation kit).
All the reagents used in this study are provided by the commercial Bioelisa Syphilis 3.0 detection kit (Biokit S.A., Lliça d'Amunt, Spain). The protocol used is that recommended in the package insert of the kit. Briefly, serum or plasma samples are added to the wells of a microtiter plate. If antibodies specific for T. pallidum are present in the sample, they form stable complexes with the antigens on the well. After washing to remove the unbound material, a rabbit conjugate anti-human IgG and anti-human IgM labelled with horseradish peroxidase is added and, if the antigen/antibody complex is present, the conjugate binds to the complex. After a second wash, an enzyme substrate solution containing a chromogen is added. This solution develops a blue color if the sample is positive. The blue color changes to yellow after blocking the reaction with sulphuric acid. […]

GST-Tp17 or Tp17-HIS = experiment: Antibacterial activity of lysozymes with or without Tp17 (EnzCheck); format: biochemical, Treponema pallidum; details: 1 unit human lysozyme or 230 units rLysozyme; 10 μg GST-Tp17 or Tp17-HIS
GST-Tp17 or Tp17-HIS, sequence (P29722 23-156 limits assumed): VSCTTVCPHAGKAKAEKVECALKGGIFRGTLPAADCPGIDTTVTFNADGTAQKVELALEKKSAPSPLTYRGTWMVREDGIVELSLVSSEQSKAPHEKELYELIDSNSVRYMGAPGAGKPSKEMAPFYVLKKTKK
Description: In that context, we compared the antibacterial activity of human lysozyme (Ventria Bioscience, Sacramento, Calif., USA) and rLysozyme™ using the EnzCheck Lysozyme assay (E-22013; Molecular Probes, Eugene, Oreg.). We first determined that under the manufacturer's prescribed assay conditions, 1 unit of human lysozyme produced the same intensity of fluorescence as 230 units of rLysozyme™. Next, we measured the fluorescence intensity of either 1 unit of human lysozyme or 230 units of rLysozyme™, in the presence or absence of 10 μg of either GST-Tp17 or Tp17-HIS. […] As a consequence, rLysozyme™ represents a novel and promising antimicrobial drug that could eventually substitute for chicken lysozyme in various therapeutic preparations intended for human and animal use. Additionally, it can be used as an antiseptic and/or as a food preservative.

[8] = test protein 83.5 to 1.3 μg/well

Molecule: sAPPα: longer recombinant fragment of β-APP derived from the APP695 isoform (Sigma S9564)
- binding of POD-labeled human lysozyme (huLYS) (lysozyme [1]): bound

Molecule: recombinant human transgenic rice lysozyme: purified recombinant human lysozyme from transgenic rice (159-53LZ-90P; Ventria Bioscience)
- specific activity [2]: 187,000 units/mg protein

Molecule: GST-Tp17: recombinant fusion of glutathione S-transferase and Treponema pallidum 17 kDa antigen Tp17 (SEQ ID NO:29)
- binding to chicken lysozyme (chicken lysozyme [3]): detected binding
- binding to human lysozyme (lysozyme [4]): detected binding
- inhibition of acetyl muramidase activity of human lysozyme (lysozyme [5]; as little as 1.3 μg/well, 50 units human lysozyme): > 85%
- inhibition of acetyl muramidase activity of chicken lysozyme (chicken lysozyme [6]; as little as 1.3 μg/well, 10 units chicken lysozyme): > 85%

B1: human lysozyme: human lysozyme (NP_000230); breast milk-derived in Example 8, recombinant (Ventria) in Examples 10 and 16 (protein, listed as Homo sapiens)
chain: T1 sequence (P61626 19-148)
- increase in signal intensity ([7]; second generation format, lysozyme added to the plate at 2.86 μg/ml, syphilis-positive human sera): about 20%
- increase in signal intensity ([7]; third generation format, lysozyme in sample dilution buffer (10.8 μg/ml) and conjugate dilution buffer (1.08 μg/ml), 3 out of 4 sera): about 200%
- susceptibility of antibacterial activity to inhibition by GST-Tp17 or Tp17-HIS (GST-Tp17 or Tp17-HIS): strongly inhibited

B2: GST-Tp47: control protein, GST fusion of T. pallidum Tp47 antigen (protein)
chain: CGSSHHETHYGYATLSYADYWAGELGQSRDVLLAGNAEADRAGDLDAGMFDAVSRATHGHGAFRQQFQYAVEVLGEKVLSKQETEDSRGRKKWEYETDPSVTKMVRASASFQDLGEDGEIKFEAVEGAVALADRASSFMVDSEEYKITNVKVHGMKFVPVAVPHELKGIAKEKFHFVEDSRVTENTNGLKTMLTEDSFSARKVSSMESPHDLVVDTVGTGYHSRFGSDAEASVMLKRADGSELSHREFIDYVMNFNTVRYDYYGDDASYTNLMASYGTKHSADSWWKTGRVPRISCGINYGFDRFKGSGPGYYRLTLIANGYRDVVADVRFLPKYEGNIDIGLKGKVLTIGGADAETLMDAAVDVFADGQPKLVSDQAVSLGQNVLSADFTPGTEYTVEVRFKEFGSVRAKVVAQ
modifications: left off: a dimerising Fc or GST
notes: control protein, GST fusion of T. pallidum Tp47 antigen
- binding to chicken lysozyme (chicken lysozyme [3]): No signal was detected
- binding to human lysozyme (lysozyme [4]): No signal was detected
- inhibitory effect on human lysozyme acetyl muramidase activity (in words) (lysozyme [5]; [8]): did not exert any inhibitory effect
- inhibitory effect on chicken lysozyme acetyl muramidase activity (in words) (chicken lysozyme [6]; [8]): did not exert any inhibitory effect
